# Measured values published in article PMC8104411, “The structure of MgtE in the absence of magnesium provides new insights into channel gating” (PLoS Biology, 2021).
# Several values for one entry are separate records, joined by “and”; a condition that tells them apart may be missing. Equal entries are not always repeated.
# Experiments:
# [1] = target: the molecule itself; assay: cryo-EM structure; full-length MgtE-Fab705 complex in PMAL-C8 amphipol, no Mg2+ or other divalent cations; 3.7 Å, C2 symmetry imposed
# [2] = target: the molecule itself; assay: cross-linking; disulfide cross-linking with Cu2+ bis-1,10-phenanthroline, 0.5 mg/ml MgtE mutant in 20 mM HEPES pH 7.0, 150 mM NaCl, 0.05% DDM, MgCl2 gradient (0.01 to 30 mM), 4°C, non-reducing SDS-PAGE
# [3] = target: T1, full-length MgtE from Thermus thermophilus (Thermus thermophilus HB8 (ATCC 27634 / …, UniProt Q5SMG8)); assay: ITC; Fab705 (25 uM) injected into the cell with full-length MgtE (about 2.5 uM monomer); 25°C; 20 mM HEPES pH 7.0, 150 mM NaCl, 0.05% DDM, 0 mM MgCl2; three repeats listed one by one; details: both partners purified
# T1 construct: Mg2+ channel MgtE, Thermus thermophilus, full length; homodimer; In DDM micelles for ITC; source: E. coli C41 (DE3), purified (DDM solubilisation, Ni-NTA, HRV3C cleavage, SEC); not shown: His6, N-terminal, cleaved
# [4] = target: T2, full-length Thermus thermophilus MgtE (Thermus thermophilus, UniProt Q5SMG8); assay: ITC; Fab705 (25 uM) injected into full-length MgtE (about 2.5 uM monomer) in the cell; 25°C; 20 mM HEPES pH 7.0, 150 mM NaCl, 0.05% DDM, 0 mM MgCl2; details: both partners purified
# T2 construct: MgtE Mg2+ channel, Thermus thermophilus, full-length gene in a pET28a-derived vector with an N-terminal hexahistidine tag and an HRV3C site; the cryo-EM model holds only residues 271 to 448 (TM domain); Homodimer; also called wild-type MgtE; WT MgtE; source: E. coli C41 (DE3), purified (Ni-NTA, SEC) in DDM; for cryo-EM reconstituted in PMAL-C8 amphipol; not shown: His6, N-terminal, cleaved
binder,measurement,setting,value
"full-length Thermus thermophilus MgtE (natural protein, UniProt Q5SMG8 1-450, looked up, MgtE Mg2+ channel, Thermus thermophilus, full-length gene in a pET28a-derived vector with an N-terminal hexahistidine tag and an HRV3C site; the cryo-EM model holds only residues 271 to 448 (TM domain); Homodimer; also called wild-type MgtE; WT MgtE; source: E. coli C41 (DE3), purified (Ni-NTA, SEC) in DDM; for cryo-EM reconstituted in PMAL-C8 amphipol; not shown: His6, N-terminal, cleaved) MEEKLAVSLQEALQEGDTRALREVLEEIHPQDLLALWDELKGEHRYVVLTLLPKAKAAEVLSHLSPEEQAEYLKTLPPWRLREILEELSLDDLADALQAVRKEDPAYFQRLKDLLDPRTRAEVEALARYEEDEAGGLMTPEYVAVREGMTVEEVLRFLRRAAPDAETIYYIYVVDEKGRLKGVLSLRDLIVADPRTRVAEIMNPKVVYVRTDTDQEEVARLMADYDFTVLPVVDEEGRLVGIVTVDDVLDVLEAEATEDIHKLGAVDVPDLVYSEAGPVALWLARVRWLVILILTGMVTSSILQGFESVLEAVTALAFYVPVLLGTGGNTGNQSATLIIRALATRDLDLRDWRRVFLKEMGVGLLLGLTLSFLLVGKVYWDGHPLLLPVVGVSLVLIVFFANLVGAMLPFLLRRLGVDPALVSNPLVATLSDVTGLLIYLSVARLLLEAV",stoichiometry N,[1],2
"MgtE double cysteine mutant T336C/L421C (natural protein, Thermus thermophilus, UniProt Q5SMG8 1-450, looked up, MgtE Mg2+ channel, Thermus thermophilus, with two cysteine substitutions; wild-type MgtE has no endogenous cysteine; source: E. coli C41 (DE3), purified as the wild type, with 20 mM DTT added before its removal by SEC; not shown: His6, N-terminal, cleaved) MEEKLAVSLQEALQEGDTRALREVLEEIHPQDLLALWDELKGEHRYVVLTLLPKAKAAEVLSHLSPEEQAEYLKTLPPWRLREILEELSLDDLADALQAVRKEDPAYFQRLKDLLDPRTRAEVEALARYEEDEAGGLMTPEYVAVREGMTVEEVLRFLRRAAPDAETIYYIYVVDEKGRLKGVLSLRDLIVADPRTRVAEIMNPKVVYVRTDTDQEEVARLMADYDFTVLPVVDEEGRLVGIVTVDDVLDVLEAEATEDIHKLGAVDVPDLVYSEAGPVALWLARVRWLVILILTGMVTSSILQGFESVLEAVTALAFYVPVLLGTGGNTGNQSACLIIRALATRDLDLRDWRRVFLKEMGVGLLLGLTLSFLLVGKVYWDGHPLLLPVVGVSLVLIVFFANLVGAMLPFLLRRLGVDPACVSNPLVATLSDVTGLLIYLSVARLLLEAV",binding result,[2],binds
"Fab705 (Fab, V domains shown, heavy chain of Fab YN0705; in the deposited MgtE-Fab structure PDB 6LBH; light chain of Fab YN0705; Fab made by papain digestion of the mouse monoclonal IgG YN0705 raised against MgtE proteoliposomes; also called Fab YN0705; Fab antibody fragment Fab705; source: mouse hybridoma culture supernatant; IgG purified by protein G, digested with papain, Fab isolated by gel filtration and protein A …) VH: EVKLQESGVELVKPGASVKISCKASGYSFTGYNMNWVKQSHGKSLEWIGNISPYYGTSIYNQNFKGKATLTVDRSSSTAYMQLNSLTSEDSAVYYCARGESFSNYEGYYAMDYWGQGTSVIVSS VL: DVLMTQTPLSLPVSLGDQASISCRSSQSLVHSDGNTYLHWYLQKPGQSPKLLIYKVSNRFSGVPDRFSGSGSGTDFTLKISRVEAEDLGVYFCSQSTHVPWTFGGGTKLEIK",Kd,[3],0.187 µM and 0.164 µM
same,stoichiometry N,[3],0.89 and 0.9 and 0.83
"Fab antibody fragment Fab705 (Fab, V domains shown, heavy chain of the mouse Fab YN0705; light chain of the mouse Fab YN0705; Fab made by papain digestion of the mouse monoclonal IgG YN0705 raised against MgtE proteoliposomes; also called Fab YN0705; YN0705; source: mouse hybridoma culture supernatant; IgG purified by protein G, digested with papain, Fab isolated by gel filtration and protein A chromatography) VH: EVKLQESGVELVKPGASVKISCKASGYSFTGYNMNWVKQSHGKSLEWIGNISPYYGTSIYNQNFKGKATLTVDRSSSTAYMQLNSLTSEDSAVYYCARGESFSNYEGYYAMDYWGQGTSVIVSS VL: DVLMTQTPLSLPVSLGDQASISCRSSQSLVHSDGNTYLHWYLQKPGQSPKLLIYKVSNRFSGVPDRFSGSGSGTDFTLKISRVEAEDLGVYFCSQSTHVPWTFGGGTKLEIK",Kd,[4],0.216 ± 0.0527 µM
